Data: US20040052788A1 (IMMUNEX, published 2004)

B1: human TRAIL (TNF Related Apoptosis Inducing Ligand), as used in the receptor binding analysis (ligand)
chain: MAMMEVQGGPSLGQTCVLIVIFTVLLQSLCVAVTYVYFTNELKQMQDKYSKSGIACFLKEDDSYWDPNDEESMNSPCWQVKWQLRQLVRKMILRTSEETISTVQEKQQNISPLVRERGPQRVAAHITGTRGRSNTLSSPNSKNEKALGRKINSWESSRSGHSFLSNLHLRNGELVIHEKGFYYIYSQTYFRFQEEIKENTKNDKQMVQYIYKYTSYPDPILLMKSARNSCWSKDAEYGLYSIYQGGIFELKENDRIFVSVTNEHLIDMDHEASFFGAFLVG
notes: also called huTRAIL
B2: human OX40 (receptor, UniProt P43489 29-214, looked up)
chain: LHCVGDTYPSNDRCCHECRPGNGMVSRCSRSQNTVCRPCGPGFYNDVVSSKPCKPCTWCNLRSGSERKQLCTATQDTVCRCRAGTQPLDSYKPGVDCAPCPPGHFSPGDNQACKPWTNCTLAGKHTLQPASNSSDAICEDRDPPATQPQETQGPPARPITVQPTEAWPRTSQGPSTRPVEVPGGRA
B3: human TNF-R (p80 form) (receptor, UniProt P20333 23-257, looked up)
chain: LPAQVAFTPYAPEPGSTCRLREYYDQTAQMCCSKCSPGQHAKVFCTKTSDTVCDSCEDSTYTQLWNWVPECLSCGSRCSSDQVETQACTREQNRICTCRPGWYCALSKQEGCRLCAPLRKCRPGFGVARPGTETSDVVCKPCAPGTFSNTTSSTDICRPHQICNVVAIPGNASMDAVCTSTSPTRSMAPGAVHLPQPVSTRSQHTQPTPEPSTAPSTSFLLPMGPSPPAEGSTGD
B4: human CD27 (receptor, UniProt P26842 20-191, looked up)
chain: ATPAPKSCPERHYWAQGKLCCQMCEPGTFLVKDCDQHRKAAQCDPCIPGVSFSPDHHTRPHCESCRHCNSGLLVRNCTITANAECACRNGWQCRDKECTECDPLPNPSLTARSSQALSPHPQPTHLPYVSEMLEARTAGHMQTLADFRQLPARTLSTHWPPQRSLCSSDFIR
B5: human LTβR (receptor, UniProt P36941 31-227, looked up)
chain: QAVPPYASENQTCRDQEKEYYEPQHRICCSRCPPGTYVSAKCSRIRDTVCATCAENSYNEHWNYLTICQLCRPCDPVMGLEEIAPCTSKRKTQCRCQPGMFCAAWALECTHCELLSDCPPGTEAELKDEVGKGNNHCVPCKAGHFQNTSSPSARCQPHTRCENQGLVEAAPGTAQSDTTCKNPLEPLPPEMSGTMLM
notes: also called TNFR-RP

Tests used:
human CD30 = target: T1, human CD30 (human, UniProt P28908 19-385, limits assumed); experiment: slide autoradiography (procedure of Gearing et al.)
T1 sequence (looked up): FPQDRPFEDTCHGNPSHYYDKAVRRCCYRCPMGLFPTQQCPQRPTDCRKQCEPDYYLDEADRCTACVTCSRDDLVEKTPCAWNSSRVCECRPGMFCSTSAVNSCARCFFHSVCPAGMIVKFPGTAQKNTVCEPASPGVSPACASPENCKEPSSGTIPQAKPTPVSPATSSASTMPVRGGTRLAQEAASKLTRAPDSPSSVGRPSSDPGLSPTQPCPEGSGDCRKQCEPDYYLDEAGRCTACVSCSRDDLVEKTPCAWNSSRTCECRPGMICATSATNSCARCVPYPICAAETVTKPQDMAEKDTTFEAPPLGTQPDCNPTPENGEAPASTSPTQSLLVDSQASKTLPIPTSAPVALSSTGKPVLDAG
Protocol: (§1) TRAIL was tested for ability to bind receptors of the TNF-R family of receptors. The binding analysis was conducted using the slide autoradiography procedure of Gearing et al. (EMBO J. 8:3667, 1989).

[1] = target: B1; experiment: as above
Protocol: as §1

B1
binding result (human CD30): no binding

B2
binding result [1]: no binding

B3
binding result [1]: no binding

B4
binding result [1]: no binding

B5
binding result [1]: no binding
